According to US20260234234A1 (QILU PUGET SOUND BIOTHERAPEUTICS, published 2026):
Residue numbers refer to the chain shown, from its start. Names and notes keep the numbering of the source.

Tests used:
[1] = molecular target: T1, Avitag_c-MYC_His6_hTSLP (wild type) QB11630 (human); test: SPR, in-house hTSLP QB11630 analyte
T1 construct: N-terminal tags are part of the entry; also called in-house hTSLP native antigen QB11630

[2] = molecular target: T1, Avitag_c-MYC_His6_hTSLP (wild type) …; test: cell-based or functional assay
[3] = molecular target: T2, Avitag_c-MYC_His6_hTSLP QB11631 with mutations of R127A + R130S (human); test: cell-based or functional assay
[4] = molecular target: T3, Avitag_FLAG_His6_cyTSLP QB11632 (wild type) (cynomolgus monkey); test: cell-based or functional assay
T3 chain: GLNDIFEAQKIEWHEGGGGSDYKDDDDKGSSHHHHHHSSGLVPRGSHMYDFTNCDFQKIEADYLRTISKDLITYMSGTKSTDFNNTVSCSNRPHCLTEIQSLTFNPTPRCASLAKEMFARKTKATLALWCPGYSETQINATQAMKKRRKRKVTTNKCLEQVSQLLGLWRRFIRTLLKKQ

[5] = molecular target: T4, Avitag_FLAG_His6_cyTSLP QB11633 with mutations of R127A + R130S (cynomolgus monkey); test: cell-based or functional assay
T4 chain: T3 chain with R147A, R150S

[6] = molecular target: T5, native hTSLP derived from human Small Airway Epithelial Cells (healthy donor 1 and donor 2) (human, UniProt Q969D9 29-159, limits assumed); test: cell-based or functional assay
[7] = molecular target: T5, native hTSLP derived from human Small …; test: cell-based or functional assay; remark: listed apart in the source
[8] = molecular target: T1, Avitag_c-MYC_His6_hTSLP (wild type) …; test: SPR, captured antibody, monomeric TSLP analyte, 25 C, 1:1 Langmuir fit
[9] = molecular target: T2, Avitag_c-MYC_His6_hTSLP QB11631 with …; test: as above
[10] = molecular target: hTSLP, R&D Systems 1398-TS-010 (E. coli) (human, UniProt Q969D9 29-159, limits assumed); test: as above
[11] = molecular target: T3, Avitag_FLAG_His6_cyTSLP QB11632 (wild …); test: as above
[12] = molecular target: T4, Avitag_FLAG_His6_cyTSLP QB11633 with …; test: as above
[13] = molecular target: T6, His6-tagged cyIL-33 (Ser112-Ile270), QB10976 (cynomolgus monkey); test: SPR, Biacore T200
T6 construct: Entry includes N-terminal Avitag, FLAG and His6 tags; isoform X1, NCBI XP_005581824; also called cyIL-33 antigen
T6 chain: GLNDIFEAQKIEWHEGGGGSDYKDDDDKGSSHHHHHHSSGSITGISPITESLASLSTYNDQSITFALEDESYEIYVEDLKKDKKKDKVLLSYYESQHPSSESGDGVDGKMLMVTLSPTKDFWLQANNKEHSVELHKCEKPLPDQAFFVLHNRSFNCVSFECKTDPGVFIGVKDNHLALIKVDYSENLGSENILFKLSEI

[14] = molecular target: T7, Avitag_c-MYC_His6-tagged hIL-33 (Ser112-Thr270), QB10975 (human); test: SPR competition, antibody titrated against 10 nM hIL-33, over immobilised hST2-Fc
T7 construct: Entry includes N-terminal Avitag, c-MYC and His6 tags; reduced with DTT to the active form; also called active hIL-33; reduced hIL-33
T7 chain: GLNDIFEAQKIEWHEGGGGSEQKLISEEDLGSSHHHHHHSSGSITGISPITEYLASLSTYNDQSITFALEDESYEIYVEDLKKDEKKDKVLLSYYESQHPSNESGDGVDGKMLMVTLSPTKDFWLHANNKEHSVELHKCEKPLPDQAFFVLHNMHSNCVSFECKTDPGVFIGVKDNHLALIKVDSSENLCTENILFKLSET

[15] = molecular target: T7, Avitag_c-MYC_His6-tagged hIL-33 …; test: SPR (Biacore) blocking: mAb premixed with 10 nM hIL-33, flowed over ST2-Fc on a CM5 chip; blocked partner ST2-Fc
[16] = molecular target: T1, Avitag_c-MYC_His6_hTSLP (wild type) …; test: cell-based or functional assay; remark: listed apart in the source
[17] = molecular target: T2, Avitag_c-MYC_His6_hTSLP QB11631 with …; test: cell-based or functional assay; remark: listed apart in the source
[18] = molecular target: T1, Avitag_c-MYC_His6_hTSLP (wild type) …; test: cell-based or functional assay; remark: listed apart in the source
[19] = molecular target: T2, Avitag_c-MYC_His6_hTSLP QB11631 with …; test: cell-based or functional assay; remark: listed apart in the source
[20] = molecular target: T3, Avitag_FLAG_His6_cyTSLP QB11632 (wild …); test: cell-based or functional assay
[21] = molecular target: T1, Avitag_c-MYC_His6_hTSLP (wild type) …; test: cell-based or functional assay; remark: listed apart in the source
[22] = molecular target: T2, Avitag_c-MYC_His6_hTSLP QB11631 with …; test: cell-based or functional assay; remark: listed apart in the source
[23] = molecular target: T3, Avitag_FLAG_His6_cyTSLP QB11632 (wild …); test: cell-based or functional assay
[24] = molecular target: T1, Avitag_c-MYC_His6_hTSLP (wild type) …; test: cell-based or functional assay; remark: listed apart in the source
[25] = molecular target: T2, Avitag_c-MYC_His6_hTSLP QB11631 with …; test: cell-based or functional assay; remark: listed apart in the source
[26] = molecular target: T3, Avitag_FLAG_His6_cyTSLP QB11632 (wild …); test: cell-based or functional assay
[27] = molecular target: T8, hTSLP, ACRO Biosystems TSP-H52Hb (HEK293) (human, UniProt Q969D9 29-159, limits assumed); test: SPR, captured antibody, monomeric TSLP analyte, 25 C, 1:1 Langmuir fit
T8 construct: also called Acro-WT

[28] = molecular target: T9, cyTSLP, ACRO Biosystems TSP-C52H8 (HEK293) (cynomolgus monkey, UniProt A0A7N9CAT7 29-159); test: as above
T9 construct: also called Acro WT

[29] = molecular target: T10, cyTSLP (R127A, R130S), ACRO Biosystems TSP-C52H4 (HEK293) (cynomolgus monkey, UniProt A0A7N9CAT7 29-159); test: as above
T10 construct: also called Acro-RA-RS

[30] = molecular target: T11, cyTSLP (R127A, R130S), Sino Biological 90911-C08H-100 (HEK293) (cynomolgus monkey, UniProt A0A7N9CAT7 29-159); test: as above
T11 construct: also called Sino-RA-RS

B1: anti-hTSLP IgG1-D265A antibody QB11764 (antibody, V domains shown)
VH: EVQLVESGGGLVQPGGSLRLSCAASGFDFSSYWISWVRQAPGKRPEWIASIDIDIDIADYASWAKGRFTISRDNSKNTLYLQMNSLRAEDTAVYYCVRNLGLWGPGTLVTVSS
VL: DIQMTQSPSSLSASVGDRVTITCQSSQNVYDKDALAWYQHKPGKRPKLLIYEASRLASGVPSRFSGSGSGTHFTLTISSLQPEDAATYYCAGTRIDNIYTFGDGTKVEIKR
notes: QB11548 altered for MabPair production; alterations are in the entries; also called lead anti-hTSLP antibody QB11764
[1]
  fold lower binding affinity against QB10985: ~3 fold
[2]
  IC50, inhibition of TSLP-induced proliferation of BaF3 cells expressing hTSLPR/hIL-7Rα (CellTiter-Glo, RLU); stimulus hTSLP QB11630: 0.1 nM
[3]
  IC50, inhibition of TSLP-induced proliferation of BaF3 cells expressing hTSLPR/hIL-7Rα (CellTiter-Glo, RLU); stimulus hTSLP QB11631: 0.17 nM
[4]
  IC50, inhibition of TSLP-induced proliferation of BaF3 cells expressing hTSLPR/hIL-7Rα (CellTiter-Glo, RLU); stimulus cyTSLP QB11632: 0.34 nM
[5]
  IC50, inhibition of TSLP-induced proliferation of BaF3 cells expressing hTSLPR/hIL-7Rα (CellTiter-Glo, RLU); stimulus cyTSLP QB11633: 0.12 nM
[6]
  IC50, inhibition of TSLP-induced proliferation of BaF3 cells expressing hTSLPR/hIL-7Rα (CellTiter-Glo, RLU); stimulus native hTSLP from healthy donor 1: 0.012 nM
[7]
  IC50, inhibition of TSLP-induced proliferation of BaF3 cells expressing hTSLPR/hIL-7Rα (CellTiter-Glo, RLU); stimulus native hTSLP from healthy donor 2: 0.012 nM
[8]
  Kd: 0.154 nM
  koff: 0.000196 s⁻¹
  kon: 1.27e+06 M⁻¹ s⁻¹
[9]
  Kd: 0.0595 nM
  koff: 0.000192 s⁻¹
  kon: 3.23e+06 M⁻¹ s⁻¹
[10]
  Kd: 0.004 nM
  koff: 0.000142 s⁻¹
  kon: 3.56e+07 M⁻¹ s⁻¹
[11]
  Kd: 1.27 nM
  koff: 0.000174 s⁻¹
  kon: 137000 M⁻¹ s⁻¹
[12]
  Kd: 0.131 nM
  koff: 0.000132 s⁻¹
  kon: 1.01e+06 M⁻¹ s⁻¹

B2: chimeric anti-hIL-33 antibody QB10998 (antibody, human IgG1, kappa, V domains shown)
VH: EVMLVESGGGLVKPGGSLKLSCAASGFTFYSSAMSWVRQTPEKRLEWVATISSGGSNTYYPDSVKGRFTISRDNAKNTLYLQMSSLGSEDTAMYYCASAYYGRRYDAMDYWGQGTSVTVSS
VL: DIVMTQAAPSIPVTPGESVSISCKSSKSLLHSNGNTYLYWFLQRPGQSPQLLIYRMSNLASGVPDRFSGSGSGTAFTLRISRVEAEDVGVYYCMQHLENPYTFGGGTKLELNR
notes: Text says murine VH on human IgG4 constant regions; the printed HC entry looks like IgG1; also called chimeric antibody
[13]
  binding result: binds
[14]
  IC50: 1.5 nM
[15]
  IC50: 1.01 nM

B3: anti-hTSLP IgG1-D265A antibody QB11718 (antibody, V domains shown)
VH: QVQLVQSGPEVKKPGSSVKVSCKASGYIFTDYAMHWVRQRPGQDLEWMGTFIPLLDTSDYNQNFKGRATITADKSTSTAYMELSSLRSEDTAVYYCARMGVTHSYVMDAWGQGTLVTVSS
VL: EIVLTQSPGTLSLSPGERATLSCRASQHISRSVHWYQQKPGEAPRLLIYFASQSISGIPDRFSGSGSGTDFTLTISRLESEDFAVYYCQQSYSFPYTFGRGTKVEIKR
notes: QB11237 altered for MabPair production; alterations are in the entries; also called lead anti-hTSLP antibody QB11718
[16]
  IC50, inhibition of hTSLP-induced IL-5 secretion from human ILC2s: 0.1 nM
[17]
  IC50, inhibition of hTSLP-induced IL-5 secretion from human ILC2s: 0.35 nM
[2]
  IC50, inhibition of TSLP-induced proliferation of BaF3 cells expressing hTSLPR/hIL-7Rα (CellTiter-Glo, RLU); stimulus hTSLP QB11630: 0.0058 nM
[3]
  IC50, inhibition of TSLP-induced proliferation of BaF3 cells expressing hTSLPR/hIL-7Rα (CellTiter-Glo, RLU); stimulus hTSLP QB11631: 0.012 nM
[4]
  IC50, inhibition of TSLP-induced proliferation of BaF3 cells expressing hTSLPR/hIL-7Rα (CellTiter-Glo, RLU); stimulus cyTSLP QB11632: 0.012 nM
[5]
  IC50, inhibition of TSLP-induced proliferation of BaF3 cells expressing hTSLPR/hIL-7Rα (CellTiter-Glo, RLU); stimulus cyTSLP QB11633: 0.0022 nM
[6]
  IC50, inhibition of TSLP-induced proliferation of BaF3 cells expressing hTSLPR/hIL-7Rα (CellTiter-Glo, RLU); stimulus native hTSLP from healthy donor 1: 0.0014 nM
[7]
  IC50, inhibition of TSLP-induced proliferation of BaF3 cells expressing hTSLPR/hIL-7Rα (CellTiter-Glo, RLU); stimulus native hTSLP from healthy donor 2: 0.0018 nM
[18]
  IC50, inhibition of TSLP-induced pSTAT5 (AlphaLISA, MFI) in BaF3 cells expressing hTSLPR/hIL-7Rα; stimulus hTSLP QB11630: 1.7 nM
[19]
  IC50, inhibition of TSLP-induced pSTAT5 (AlphaLISA, MFI) in BaF3 cells expressing hTSLPR/hIL-7Rα; stimulus hTSLP QB11631: 0.78 nM
[20]
  IC50, inhibition of TSLP-induced pSTAT5 (AlphaLISA, MFI) in BaF3 cells expressing hTSLPR/hIL-7Rα; stimulus cyTSLP QB11632: 0.28 nM
[21]
  IC50, inhibition of TSLP-induced CCL17 release from primary human monocytes (ELISA, pg/mL); stimulus hTSLP QB11630: 0.0045 nM
[22]
  IC50, inhibition of TSLP-induced CCL17 release from primary human monocytes (ELISA, pg/mL); stimulus hTSLP QB11631: 0.0013 nM
[23]
  IC50, inhibition of TSLP-induced CCL17 release from primary human monocytes (ELISA, pg/mL); stimulus cyTSLP QB11632: 0.0027 nM
[24]
  IC50, inhibition of TSLP-induced pSTAT5 (AlphaLISA, MFI) in cultured primary human ILC2 cells; stimulus hTSLP QB11630: 1.5 nM
[25]
  IC50, inhibition of TSLP-induced pSTAT5 (AlphaLISA, MFI) in cultured primary human ILC2 cells; stimulus hTSLP QB11631: 3.1 nM
[26]
  IC50, inhibition of TSLP-induced pSTAT5 (AlphaLISA, MFI) in cultured primary human ILC2 cells; stimulus cyTSLP QB11632: 0.46 nM
[8]
  Kd: 0.0778 nM
[9]
  Kd: 0.0163 nM
[10]
  Kd: 0.00502 nM
[27]
  Kd: 0.0118 nM
[11]
  Kd: 0.831 nM
[12]
  Kd: 0.075 nM
[28]
  Kd: 0.0295 nM
[29]
  Kd: 0.0263 nM
[30]
  Kd: 0.0187 nM
